This note sets out measurements from patent US20260049134A1 (UNIVERSITY OF FLORIDA RESEARCH FOUNDATION, published 2026).

Assay [1] addresses T1, CADM1, endogenous in H929 multiple myeloma cells (human, UniProt Q9BY67 45-442).
T1 construct: Native protein on H929 cells (flow cytometry, siRNA knockdown) and in H929 lysates (IP/MS); RPMI-8226 cells were used for sorting with HW-97; also called IGSF4A
T1 sequence: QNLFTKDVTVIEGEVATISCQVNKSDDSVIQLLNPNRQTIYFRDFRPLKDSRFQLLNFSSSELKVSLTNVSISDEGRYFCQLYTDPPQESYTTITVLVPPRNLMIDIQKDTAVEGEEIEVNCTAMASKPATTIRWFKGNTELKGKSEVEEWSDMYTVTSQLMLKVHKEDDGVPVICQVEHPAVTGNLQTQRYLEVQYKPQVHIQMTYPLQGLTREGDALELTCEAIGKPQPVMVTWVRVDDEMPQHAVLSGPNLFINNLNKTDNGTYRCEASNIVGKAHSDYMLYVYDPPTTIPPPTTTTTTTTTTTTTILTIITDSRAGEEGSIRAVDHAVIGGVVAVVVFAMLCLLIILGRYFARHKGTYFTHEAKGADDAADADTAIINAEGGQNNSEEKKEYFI
The assay can be described thus: flow cytometry, H929 + vehicle; None 513. On the technique in general: Flow cytometry measures light scatter and fluorescence of single cells or particles in a stream.

The target in assay [2] is T2, PTPRG-Fc (ECD of human PTPRG, aa 20-736, fused to human Fc gamma 1) (human, UniProt P23470 20-736).
T2 construct: Made in-house in Expi293 cells; Used in ELISA and SPR; also called recombinant PTPRG-Fc; PTRPG; not shown: human IgG1 Fc (Fc gamma 1) after the hinge
T2 sequence: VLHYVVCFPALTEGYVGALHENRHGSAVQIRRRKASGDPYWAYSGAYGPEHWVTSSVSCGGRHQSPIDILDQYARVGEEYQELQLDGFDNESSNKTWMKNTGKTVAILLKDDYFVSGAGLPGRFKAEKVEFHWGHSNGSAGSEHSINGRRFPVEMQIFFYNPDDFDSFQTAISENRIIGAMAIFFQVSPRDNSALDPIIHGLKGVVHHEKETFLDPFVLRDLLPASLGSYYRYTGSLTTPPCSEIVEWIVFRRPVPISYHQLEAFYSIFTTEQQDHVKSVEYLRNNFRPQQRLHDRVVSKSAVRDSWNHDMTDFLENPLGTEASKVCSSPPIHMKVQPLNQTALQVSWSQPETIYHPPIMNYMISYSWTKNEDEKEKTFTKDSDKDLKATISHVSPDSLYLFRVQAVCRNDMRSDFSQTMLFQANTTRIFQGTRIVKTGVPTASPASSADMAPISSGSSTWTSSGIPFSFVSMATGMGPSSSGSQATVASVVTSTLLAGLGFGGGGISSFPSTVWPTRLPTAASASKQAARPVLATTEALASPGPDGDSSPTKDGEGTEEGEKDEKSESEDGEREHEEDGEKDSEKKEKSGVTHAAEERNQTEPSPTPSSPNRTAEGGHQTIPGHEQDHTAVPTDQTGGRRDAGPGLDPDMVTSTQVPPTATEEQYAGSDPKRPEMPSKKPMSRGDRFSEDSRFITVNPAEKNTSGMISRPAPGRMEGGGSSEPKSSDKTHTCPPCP
Description: ELISA on coated PTPRG-Fc. As to the method: Recombinant purified ECDs (50-150 ng) of each putative target protein were coated, incubated with 150 ng of the indicated primary antibody, and binding was detected using a peroxidase-conjugated anti-human Fab secondary antibody. Heatmap represents averages of technical triplicates. (8B) Target validation via siRNA knockdown. H929 cells were transfected with siRNA pools targeting the putative antibody targets ICAM1, CADM1, and PTPRG. Cells were then subjected to cognate IgG binding analysis via flow cytometry. (NT, non-targeting siRNA).
ELISA ELISA was conducted as described previously. Briefly, 50-150 ng of antigen was coated overnight in half-area 96-well plates at 4° C., blocked with 3% BSA at 37° C. for 1 h, and 150 ng of chimeric rabbit/human IgG1 was added, incubating for 2 h at 37° C. […] After incubating at 37° C. for 15 min-1 h (depending on intensity of controls), data were acquired using a SpectraMax M5 plate reader (Molecular Devices).

B1: TH9-0022 (antibody, human IgG1, kappa, L234A L235A, V domains shown)
VH: QSLEESGGRLVTPGTPLTLTCTVSGFSLSSYAMNWVRQAPGKGLEWIGIINSYGSTYYASWAKGRFTISKTSTTVDLKITSPTTEDTATYFCARVTYDSYGYGYAPYGMDLWGPGTLVTVSS
VL: LVMTQTPSSTSNAVGGTVTIKCQASQSIGNVLAWYQQKPGQPPKLLIYAASTLASGVPSRVGGSRSGTEYTLTISGVQREDAATYYCLGSDSDSDIAFGGGTELEILR
notes: also called TH9-022; negative control
For the molecule B1, in assay [1], the “mAb binding (MFI)” value amounted to 595. Moreover, the binding result in assay [2] is recorded as “no binding (tested: 150 ng IgG1 per well)”.
